Results as given in ChEMBL document CHEMBL3091431, “Aminopyridyl/Pyrazinyl Spiro[indoline-3,4'-piperidine]-2-ones As Highly Selective and Efficacious c-Met/ALK Inhibitors” (ACS Med Chem Lett, 2013).

Compound: Nc1ncnc2c1ncn2[C@@H]1O[C@H](COP(=O)(O)OP(=O)(O)OP(=O)(O)O)[C@@H](O)[C@H]1O
Assay: Inhibition of human ALK (unknown origin) using poly[Glu:Tyr] as substrate by nanoliter kinase assay

B1: ALK tyrosine kinase receptor (Homo sapiens), Q9UM73 (protein)
chain: MGAIGLLWLLPLLLSTAAVGSGMGTGQRAGSPAAGPPLQPREPLSYSRLQRKSLAVDFVVPSLFRVYARDLLLPPSSSELKAGRPEARGSLALDCAPLLRLLGPAPGVSWTAGSPAPAEARTLSRVLKGGSVRKLRRAKQLVLELGEEAILEGCVGPPGEAAVGLLQFNLSELFSWWIRQGEGRLRIRLMPEKKASEVGREGRLSAAIRASQPRLLFQIFGTGHSSLESPTNMPSPSPDYFTWNLTWIMKDSFPFLSHRSRYGLECSFDFPCELEYSPPLHDLRNQSWSWRRIPSEEASQMDLLDGPGAERSKEMPRGSFLLLNTSADSKHTILSPWMRSSSEHCTLAVSVHRHLQPSGRYIAQLLPHNEAAREILLMPTPGKHGWTVLQGRIGRPDNPFRVALEYISSGNRSLSAVDFFALKNCSEGTSPGSKMALQSSFTCWNGTVLQLGQACDFHQDCAQGEDESQMCRKLPVGFYCNFEDGFCGWTQGTLSPHTPQWQVRTLKDARFQDHQDHALLLSTTDVPASESATVTSATFPAPIKSSPCELRMSWLIRGVLRGNVSLVLVENKTGKEQGRMVWHVAAYEGLSLWQWMVLPLLDVSDRFWLQMVAWWGQGSRAIVAFDNISISLDCYLTISGEDKILQNTAPKSRNLFERNPNKELKPGENSPRQTPIFDPTVHWLFTTCGASGPHGPTQAQCNNAYQNSNLSVEVGSEGPLKGIQIWKVPATDTYSISGYGAAGGKGGKNTMMRSHGVSVLGIFNLEKDDMLYILVGQQGEDACPSTNQLIQKVCIGENNVIEEEIRVNRSVHEWAGGGGGGGGATYVFKMKDGVPVPLIIAAGGGGRAYGAKTDTFHPERLENNSSVLGLNGNSGAAGGGGGWNDNTSLLWAGKSLQEGATGGHSCPQAMKKWGWETRGGFGGGGGGCSSGGGGGGYIGGNAASNNDPEMDGEDGVSFISPLGILYTPALKVMEGHGEVNIKHYLNCSHCEVDECHMDPESHKVICFCDHGTVLAEDGVSCIVSPTPEPHLPLSLILSVVTSALVAALVLAFSGIMIVYRRKHQELQAMQMELQSPEYKLSKLRTSTIMTDYNPNYCFAGKTSSISDLKEVPRKNITLIRGLGHGAFGEVYEGQVSGMPNDPSPLQVAVKTLPEVCSEQDELDFLMEALIISKFNHQNIVRCIGVSLQSLPRFILLELMAGGDLKSFLRETRPRPSQPSSLAMLDLLHVARDIACGCQYLEENHFIHRDIAARNCLLTCPGPGRVAKIGDFGMARDIYRASYYRKGGCAMLPVKWMPPEAFMEGIFTSKTDTWSFGVLLWEIFSLGYMPYPSKSNQEVLEFVTSGGRMDPPKNCPGPVYRIMTQCWQHQPEDRPNFAIILERIEYCTQDPDVINTALPIEYGPLVEEEEKVPVRPKDPEGVPPLLVSQQAKREEERSPAAPPPLPTTSSGKAAKKPTAAEISVRVPRGPAVEGGHVNMAFSQSNPPSELHKVHGSRNKPTSLWNPTYGSWFTEKPTKKNNPIAKKEPHDRGNLGLEGSCTVPPNVATGRLPGASLLLEPSSLTANMKEVPLFRLRHFPCGNVNYGYQQQGLPLEAATAPGAGHYEDTILKSKNSMNQPGP
For B1, the Km was 50 µM.
